Measurements: patent publication US20120141376A1, “PROSTATE SPECIFIC TRANSCRIPTS AND THE USE THEREOF FOR PROSTATE CANCER THERAPEUTICS AND DIAGNOSTICS” (priority 2006, published 2012)

B1: No. 2: DATAS fragment; melanoma assoc. antigen (mutated) 1; exon extension (nucleic acid, listed as Homo sapiens)
DNA: GGCTCAGGGGGCACGTTTGCGTTTGGACCTGTCTGCGCGTTCTCCTGCGTGGCAGTCCTGATTTCCATACTTCTGGAGAATCCATTTCGTTAACACTGAAAGCCAGTTCTCTTTTCCTGGCAGTTTTTTTCATTTTATTTTTGGCATTTTTTACAAGATACCGTTCGGGAAAGGCTTTTGAAAGGACGGAAGCGTATTCACTGTGCGCCAGTACTCCTGGCTGTGCTGTGGTTTCTCCCGACGTGCACATCGATCTCGTATGTGTGGCATCTGATATTAAACGGGAGGTTTTAAGAAGCGTCTGCCGTGATCATGGAGCTTCGGAAGCGGGAATGGTTCTTCCGGGTTTGCTGTTTTGTCTGTTTCCCCCTTGTGTGGTTTCCGCCTGCGACAGTTCCAGAATTTGCTCTCCCACTCAGTGTGCTCTGCAGCTG
B2: No. 3: DATAS fragment; aminoacylase 1; exon extension (nucleic acid, listed as Homo sapiens)
DNA: CCAGGCAGCTGGCGAGGGGGTCACCCTAGAGTTTGCTCAGGTATGGACTTGGGACATGTGATGGGAGAGTGTGGGAGCCGGGGGAGACCCAAGTGTGCAACAGTGGAGTGTGTGCTTGGTGTGTCTGCATATGTCTGGGCATTTCTTTATCTGTGACAGACACATTTTATTCCAACAAGCATTCATTGTAGAGGCCACTGTGGGTGCTGGGGAATGCTGTGGGGAGTAAAATTAGGCACAGTTCATGCCCTTGTATGGTGAAACGGGGAGATATAAATCAAACATTTATGTGATATTACTTTTTTCTGAGAGAATCTCACTCCGTCAC

How the values were obtained:
[1] = test system: PSMA messenger RNA (mRNA); settings: LNCaP prostate cancer cell line after exposure; cited from earlier work
[2] = test system: HLA class I (e.g. HLA-A2) expressing adherent 293T cells; test: CTL assay on reverse transfected microarray (caspase activation, fluorescent Z-VAD); assay type: cell-based, human; settings: HLA-matched CD8+ T cells from prostate cancer patients incubated 4 hours on array; red fluorescent signal = positive response
From the text: Additional patient samples were procured for the cytotoxic T Lymphocyte (CTL) assay. […] (PBMC) were isolated from blood drawn from patients with relevant clinical parameters, and with patient consent. Clinical data generally included patent history, physiopathology, and parameters relating to prostate cancer physiology. PBMCs were collected from 6 prostate cancer patients that met the study requirements. Duplicate samples were obtained from a single patient.
The 192 selected DATAS fragments were PCR amplified out of the library vector and directionally cloned into a eukaryotic expression vector down stream from staggered start site initiation codons. This configuration allows the DATAS fragment to be expressed in all the open reading frames, which is required because the correct reading frame is not always readily apparent.
Plasmid preparations were performed and the expression vectors containing the selcted DATAS fragment clones were re-arrayed into 96 well plates, which were subsequently used to spot glass slides for use in the CTL assay previously disclosed in International Patent Application No. PTC/US2005/032392, the disclosure of which is incorporated by reference in its entirety.
A design file containing the desired microarray positions of the DATAS expression vectors was uploaded into a high resolution scanner. The expression vectors containing the DATAS fragments were mixed with gelatin and lipofectamine and then spotted in duplicate in a pattern that matched the design file uploaded into the high resolution microarray scanner. The following positive controls, negative controls and experimental samples were spotted on the array.
The spotted arrays were then overlaid with HLA class I (e.g. HLA-A2) expressing adherent 293T cells and cultured for 48-72 hours to allow cells time to express vector-encoded transcripts.
The assay for CTL reactivity was then performed by incubating HLA-matched CD8^+ T cells from normal and prostate cancer patients on cultured reverse transfected microarray slides for 4 hours. Prior to incubation with the array, T cells from normals or patients may need to be expanded in vitro, to a small or large extent, to enhance the frequency of responding T cells. An inhibitor of activated caspase, fluorescence-tagged (sulfo-Rhodamine)-Z-VAD, is present throughout the cell incubation to bind caspases that become activated when antigen expressing adherent cells on certain spots are induced to die by the CTL. The slides are then washed to remove unbound fluorescent Z-VAD and 2-color (Green and Red) fluorescence images of the microarray slides are obtained with the microarray scanner.
Analysis and confirmation of data is then determined by visual inspection of the scanned image. The success of the reverse transfection is evaluated by observing green fluorescence at EGFP vector control spots. Then the fluorescence threshold(s) are adjusted on microarray scanner as necessary to establish relevant background and positive control signal intensities. […] Using the coordinate locations for the spots, the cDNAs yielding positive responses are identified.

Molecule	PSMA messenger RNA (mRNA) down-regulated [1]	Patient ID with positive hit [2]
C[C@]12CCC(=O)C[C@@H]1CC[C@@H]1[C@@H]2CC[C@]2(C)[C@@H](O)CC[C@@H]12 [5-alpha-dihydroxytestosterone]	8-10 fold	
B1		EYGRT; MSMPB
B2		MSMPB
